Reference: article PMC4894940, “The function of the two-pore channel TPC1 depends on dimerization of its carboxy-terminal helix” (Cellular and Molecular Life Sciences: CMLS, 2016)
Positions count from the first letter of the chain named.

B1: TPC1ΔC8: truncated TPC1 containing residues 1–725 (protein, UniProt Q94KI8 1-725, looked up, fragment)
chain: MEDPLIGRDSLGGGGTDRVRRSEAITHGTPFQKAAALVDLAEDGIGLPVEILDQSSFGESARYYFIFTRLDLIWSLNYFALLFLNFFEQPLWCEKNPKPSCKDRDYYYLGELPYLTNAESIIYEVITLAILLVHTFFPISYEGSRIFWTSRLNLVKVACVVILFVDVLVDFLYLSPLAFDFLPFRIAPYVRVIIFILSIRELRDTLVLLSGMLGTYLNILALWMLFLLFASWIAFVMFEDTQQGLTVFTSYGATLYQMFILFTTSNNPDVWIPAYKSSRWSSVFFVLYVLIGVYFVTNLILAVVYDSFKEQLAKQVSGMDQMKRRMLEKAFGLIDSDKNGEIDKNQCIKLFEQLTNYRTLPKISKEEFGLIFDELDDTRDFKINKDEFADLCQAIALRFQKEEVPSLFEHFPQIYHSALSQQLRAFVRSPNFGYAISFILIINFIAVVVETTLDIEESSAQKPWQVAEFVFGWIYVLEMALKIYTYGFENYWREGANRFDFLVTWVIVIGETATFITPDENTFFSNGEWIRYLLLARMLRLIRLLMNVQRYRAFIATFITLIPSLMPYLGTIFCVLCIYCSIGVQVFGGLVNAGNKKLFETELAEDDYLLFNFNDYPNGMVTLFNLLVMGNWQVWMESYKDLTGTWWSITYFVSFYVITILLLLNLVVAFVLEAFFTELDLEEEEKCQGQDSQEKRNRRRSAGSKSRSQRVDTLLHHMLGDELSK
modifications: GFP fusion
B2: TPC1ΔC29: truncated TPC1 containing residues 1–704 (protein, UniProt Q94KI8 1-704, looked up, fragment)
chain: MEDPLIGRDSLGGGGTDRVRRSEAITHGTPFQKAAALVDLAEDGIGLPVEILDQSSFGESARYYFIFTRLDLIWSLNYFALLFLNFFEQPLWCEKNPKPSCKDRDYYYLGELPYLTNAESIIYEVITLAILLVHTFFPISYEGSRIFWTSRLNLVKVACVVILFVDVLVDFLYLSPLAFDFLPFRIAPYVRVIIFILSIRELRDTLVLLSGMLGTYLNILALWMLFLLFASWIAFVMFEDTQQGLTVFTSYGATLYQMFILFTTSNNPDVWIPAYKSSRWSSVFFVLYVLIGVYFVTNLILAVVYDSFKEQLAKQVSGMDQMKRRMLEKAFGLIDSDKNGEIDKNQCIKLFEQLTNYRTLPKISKEEFGLIFDELDDTRDFKINKDEFADLCQAIALRFQKEEVPSLFEHFPQIYHSALSQQLRAFVRSPNFGYAISFILIINFIAVVVETTLDIEESSAQKPWQVAEFVFGWIYVLEMALKIYTYGFENYWREGANRFDFLVTWVIVIGETATFITPDENTFFSNGEWIRYLLLARMLRLIRLLMNVQRYRAFIATFITLIPSLMPYLGTIFCVLCIYCSIGVQVFGGLVNAGNKKLFETELAEDDYLLFNFNDYPNGMVTLFNLLVMGNWQVWMESYKDLTGTWWSITYFVSFYVITILLLLNLVVAFVLEAFFTELDLEEEEKCQGQDSQEKRNRRRSAGS
modifications: C-terminal GFP
B3: TPC1-3LP: substitution of three leucines (L714, 715, and 719) by prolines (protein, UniProt Q94KI8 1-733, looked up, variant L714P L715P L719P)
Two pore calcium channel …: MEDPLIGRDSLGGGGTDRVRRSEAITHGTPFQKAAALVDLAEDGIGLPVEILDQSSFGESARYYFIFTRLDLIWSLNYFALLFLNFFEQPLWCEKNPKPSCKDRDYYYLGELPYLTNAESIIYEVITLAILLVHTFFPISYEGSRIFWTSRLNLVKVACVVILFVDVLVDFLYLSPLAFDFLPFRIAPYVRVIIFILSIRELRDTLVLLSGMLGTYLNILALWMLFLLFASWIAFVMFEDTQQGLTVFTSYGATLYQMFILFTTSNNPDVWIPAYKSSRWSSVFFVLYVLIGVYFVTNLILAVVYDSFKEQLAKQVSGMDQMKRRMLEKAFGLIDSDKNGEIDKNQCIKLFEQLTNYRTLPKISKEEFGLIFDELDDTRDFKINKDEFADLCQAIALRFQKEEVPSLFEHFPQIYHSALSQQLRAFVRSPNFGYAISFILIINFIAVVVETTLDIEESSAQKPWQVAEFVFGWIYVLEMALKIYTYGFENYWREGANRFDFLVTWVIVIGETATFITPDENTFFSNGEWIRYLLLARMLRLIRLLMNVQRYRAFIATFITLIPSLMPYLGTIFCVLCIYCSIGVQVFGGLVNAGNKKLFETELAEDDYLLFNFNDYPNGMVTLFNLLVMGNWQVWMESYKDLTGTWWSITYFVSFYVITILLLLNLVVAFVLEAFFTELDLEEEEKCQGQDSQEKRNRRRSAGSKSRSQRVDTPPHHMPGDELSKPECSTSDT
modifications: C-terminal GFP
notes: substitution of three leucines (L714, 715, and 719) by prolines
B4: TPC1: wild type Arabidopsis two-pore channel TPC1 expressed as GFP-fusion in tpc1-2 background (protein)
chain: B3 Two pore calcium channel … with P714L, P715L, P719L
modifications: left off: Venus C-terminal half (VC, one copy) or Venus N-terminal half (VN, the other copy), C-terminal, kept
notes: wild type Arabidopsis two-pore channel TPC1 expressed as GFP-fusion in tpc1-2 background
B5: N-terminally tagged TPC1: TPC1 subunits N-terminally tagged with Venus halves (BiFC) or GFP (localization) (protein)
chain: B3 Two pore calcium channel … with P714L, P715L, P719L
modifications: left off: Venus C-terminal half (VC, one copy) or Venus N-terminal half (VN, the other copy), N-terminal, kept

Legend:
[1] = test system: slow vacuolar (SV) currents in tpc1-2 vacuoles; experiment: Whole-vacuolar patch-clamp of TPC1 variants (SV currents); type: cell-based, Arabidopsis thaliana; conditions: whole-vacuolar; for whole-vacuolar SV currents: GFP-fusion in tpc1-2 vacuoles, 1 mM CaCl2 bath, pH 7.5
Experimental: (§1) Expression of GFP-fusion proteins for electrophysiological measurements or confocal microscopy was performed in A. thaliana tpc1-2 mesophyll protoplasts as described. Briefly, leaves were enzymatically digested to release mesophyll protoplasts, which were then transformed by the polyethylene glycol method. Protoplasts were used for electrophysiological measurements and subcellular localization of GFP fluorescence 2–4 days after transformation.
(§2) Patch-clamp experiments were performed on transformed vacuoles harboring two-pore channels as identified by GFP fluorescence. The pipette (luminal) solution consisted of 100 mM K-gluconate, 2 mM MgCl2, 10 mM EGTA, 10 mM MES, pH 5.5/Tris. The bath (cytosolic) solution contained 50 mM K-gluconate, 1 mM CaCl2, 1 mM MgCl2, 2 mM DTT, 10 mM HEPES, pH 7.5/Tris. Solutions were adjusted to 430 mosmol/kg by adding D-sorbitol. For analysis of the TPC1-S706 mutants two further calcium concentrations of the bath solution were used in which 1 mM CaCl2 was substituted by 0.2 mM or 0.05 mM CaCl2, respectively. Competition assays using the CTH peptide were performed on endogenous TPC1 channels in vacuoles isolated from Col-0 plants. Peptides were dissolved at 10 mM in bath solution supplemented with 1 % DMSO and 0.1 % pluronic, and diluted >600-fold for application in patch-clamp recordings. Currents were recorded either in the whole-vacuolar or cytosolic side-out configuration of the patch-clamp technique, using an EPC10 amplifier and the program PULSE (HEKA electronics, Lambrecht, Germany). Recordings and data analysis were performed as described earlier. Relative open probabilities (P o) were determined from tail currents at −53 mV, following pulses to the different test voltages. Tail currents were normalized to the maximum values at 1 mM Ca^2+, plotted as a function of the applied test voltage, and fitted according to the Boltzmann equation: PO=A/1+exp^zF/RT·(Vo-V) where V o and z are parameters for the voltage at half-maximum open probability and the apparent number of gating charges, respectively, and A describes the maximum conductance that is reached under the experimental conditions.

tonoplast = experiment: Confocal localization of GFP-fusions in tpc1-2 mesophyll protoplasts; type: cell-based, Arabidopsis thaliana; conditions: GFP-fusion in tpc1-2 mesophyll protoplasts
Experimental: as §1
Fluorescence signals were detected and documented with a TCS SP2 confocal laser scanning microscope and the Leica Confocal Software (Leica Microsystems). A 488 nm Argon laser was used for excitation of GFP and of the auto-fluorescence of chlorophyll. GFP-signals were detected from 500 to 556 nm and chlorophyll signals from 675 to 767 nm. Venus was excited with a […] and detected in the range from 520 to 556 nm, the corresponding chlorophyll signals were detected from 637 to 736 nm. Images were processed with Photoshop (Adobe Systems).

[2] = test system: excised cytosolic side-out vacuolar membrane patches of tpc1-2 cells; experiment: Excised cytosolic side-out patch recordings of TPC1 variants; type: cell-based, Arabidopsis thaliana
Experimental: as §1, §2

[3] = test system: TPC1 subunits co-expressed in Nicotiana benthamiana leaves; experiment: Bimolecular fluorescence complementation (Split Venus BiFC); type: cell-based; conditions: N. benthamiana leaves, plate reader and confocal
Experimental: For BiFC analyses the gateway entry vector pENTR-D-TOPO and the destination vectors pDEST–^GWVYCE and pDEST–^GWVYNE were used for C-terminal fusion of the Venus C- and N-terminus, respectively, and pDEST–VYCE(R)^GW and pDEST–VYNE(R)^GW for N-terminal tagging.
BiFC studies were performed as described using a Split Venus system. The Agrobacterium strain C58C1 [42] harboring the plasmid of interest and the helper strain p19 [43] were grown in LB medium supplemented with 100 µg/ml Kanamycin at 29 °C overnight. The cultures were brought to an optical density (OD600) of 1.0 in infiltration buffer (10 mM MES, 10 mM MgCl2, 100 µM acetosyringone, pH 5.7/KOH) and the combinations to test for co-expression mixed at equal amounts. The p19 helper strain (OD600 = 1.0) was added to these mixtures in a 1:1 ratio. Suspensions were incubated for 2 h before infiltration into the abaxial side of 6-week-old N. benthamiana leaves. Each leaf was infiltrated with several plasmid combinations and a positive control (TPC1/pDEST-^GWVYCE and TPC1/pDEST-^GWVYNE) as well as a negative control (p19 alone) at separated areas to monitor comparability of the transient expression and to define background fluorescence.
For fluorescence quantification leaf disks (Ø 6 mm) were cut out of the infiltrated areas with a cork borer 2.5 day after infiltration. Leaf disks were placed upside-down in a black 96-well plate prefilled with 70 µl H2O per well to minimize dehydration effects. Fluorescence was measured with a plate-reader (Infinite F200, Tecan) with an excitation wavelength of 485 ± 20 nm and an emission wavelength of 525 ± 25 nm.

| Molecule | whole-vacuolar SV currents [1] | subcellular localization of GFP-fusion (tonoplast) | residual whole-vacuolar current amplitude (% of wild type amplitude) ([1]; 1 mM CaCl2, relative to wild type, results section) | macroscopic currents in excised patches ([2]; excised patches, tpc1-2 cells) | BiFC signal [3] | current remaining following reduction of Ca2+ from 1 mM to 200 µM ([2]; at 107 mV, Ca2+ reduced from 1 mM to 200 µM (n = 3–7)) [%] |
| --- | --- | --- | --- | --- | --- | --- |
| B1 | wild type like | localized in the tonoplast |  |  |  |  |
| B2 | stayed silent | localized in the tonoplast |  |  |  |  |
| B3 |  |  | about 7% | no macroscopic currents were resolved | reduced compared to the wild type |  |
| B4 |  |  |  |  | BiFC signals from wild type channels could be observed | 53 ± 10 |
| B5 |  | tonoplast localization |  |  | did not result in Venus-fluorescence |  |
